B1: scDb/scFv-Fc (1-2)+1, trivalent bispecific anti-FAPxanti-CD3 (bispecific antibody)
chain 1: QVQLVQSGAEVKKPGASVKVSCKASGYTFTENIIHWVRQAPGQGLEWMGWFHPGSGSIKYNEKFKDRVTMTADTSTSTVYMELSSLRSEDTAVYYCARHGGTGRGAMDYWGQGTLVTVSSGGGGSDIQMTQSPSSLSASVGDRVTITCRASQDIRNYLNWYQQKPGKAPKLLIYYTSRLHSGVPSRFSGSGSGTDFTFTISSLQPEDIATYYCQQGNTLPWTFGQGTKLEIKRGGGGSGGGGSGGGGSQVQLVQSGAEVKKPGSSVKVSCKASGGTFSGYTMNWVRQAPGQGLEWMGLINPYKGVSTYNGKFKDRVTITADKSTSTAYMELSSLRSEDTAVYYCARSGYYGDSDWYFDVWGQGTLVTVSSGGGGSDIQMTQSPSSLSASVGDRVTITCRASKSVSTSAYSYMHWYQQKPGKAPKLLIYLASNLESGVPSRFSGSGSGTDFTLTISSLQPEDFATYYCQHSRELPYTFGQGTKLEIKRAAADKTHTCPPCPAPPVAGPSVFLFPPKPKDTLMISRTPEVTCVVVDVSHEDPEVKFNWYVDGVEVHNAKTKPREEQYNSTYRVVSVLTVLHQDWLNGKEYKCKVSNKGLPSSIEKTISKAKGQPREPQVCTLPPSRDELTKNQVSLSCAVKGFYPSDIAVEWESNGQPENNYKTTPPVLDSDGSFFLVSKLTVDKSRWQQGNVFSCSVMHEALHNHYTQKSLSLSPGK
chain 2: QVQLVQSGAEVKKPGASVKVSCKASGYTFTENIIHWVRQAPGQGLEWMGWFHPGSGSIKYNEKFKDRVTMTADTSTSTVYMELSSLRSEDTAVYYCARHGGTGRGAMDYWGQGTLVTVSSGGGGSGGGGSGGGGSDIQMTQSPSSLSASVGDRVTITCRASKSVSTSAYSYMHWYQQKPGKAPKLLIYLASNLESGVPSRFSGSGSGTDFTLTISSLQPEDFATYYCQHSRELPYTFGQGTKLEIKRAAADKTHTCPPCPAPPVAGPSVFLFPPKPKDTLMISRTPEVTCVVVDVSHEDPEVKFNWYVDGVEVHNAKTKPREEQYNSTYRVVSVLTVLHQDWLNGKEYKCKVSNKGLPSSIEKTISKAKGQPREPQVYTLPPCRDELTKNQVSLWCLVKGFYPSDIAVEWESNGQPENNYKTTPPVLDSDGSFFLYSKLTVDKSRWQQGNVFSCSVMHEALHNHYTQKSLSLSPGK
notes: The FAP site is hu36; also called scDbFAPxCD3-Fc(hole)Δab + scFvFAP-Fc(knob)Δab
B2: scDb/scFv-Fc (2-1)+1, trivalent bispecific anti-FAPxanti-CD3 (bispecific antibody)
chain 1: QVQLVQSGAEVKKPGSSVKVSCKASGGTFSGYTMNWVRQAPGQGLEWMGLINPYKGVSTYNGKFKDRVTITADKSTSTAYMELSSLRSEDTAVYYCARSGYYGDSDWYFDVWGQGTLVTVSSGGGGSDIQMTQSPSSLSASVGDRVTITCRASKSVSTSAYSYMHWYQQKPGKAPKLLIYLASNLESGVPSRFSGSGSGTDFTLTISSLQPEDFATYYCQHSRELPYTFGQGTKLEIKRGGGGSGGGGSQVQLVQSGAEVKKPGASVKVSCKASGYTFTENIIHWVRQAPGQGLEWMGWFHPGSGSIKYNEKFKDRVTMTADTSTSTVYMELSSLRSEDTAVYYCARHGGTGRGAMDYWGQGTLVTVGGGGSDIQMTQSPSSLSASVGDRVTITCRASQDIRNYLNWYQQKPGKAPKLLIYYTSRLHSGVPSRFSGSGSGTDFTFTISSLQPEDIATYYCQQGNTLPWTFGQGTKLEIKRAAADKTHTCPPCPAPPVAGPSVFLFPPKPKDTLMISRTPEVTCVVVDVSHEDPEVKFNWYVDGVEVHNAKTKPREEQYNSTYRVVSVLTVLHQDWLNGKEYKCKVSNKGLPSSIEKTISKAKGQPREPQVCTLPPSRDELTKNQVSLSCAVKGFYPSDIAVEWESNGQPENNYKTTPPVLDSDGSFFLVSKLTVDKSRWQQGNVFSCSVMHEALHNHYTQKSLSLSPGK
chain 2: B1 chain 2
notes: also called scDbCD3xFAP-Fc(hole)Δab + scFvFAP-Fc(knob)Δab
B3: scDb/Fab-Fc (1-2)+1, trivalent bispecific anti-FAPxanti-CD3 (bispecific antibody, human IgG1, kappa)
chain: B1 chain 1
heavy: QVQLVQSGAEVKKPGASVKVSCKASGYTFTENIIHWVRQAPGQGLEWMGWFHPGSGSIKYNEKFKDRVTMTADTSTSTVYMELSSLRSEDTAVYYCARHGGTGRGAMDYWGQGTLVTVSSASTKGPSVFPLAPSSKSTSGGTAALGCLVKDYFPEPVTVSWNSGALTSGVHTFPAVLQSSGLYSLSSVVTVPSSSLGTQTYICNVNHKPSNTKVDKKVEPKSCDKTHTCPPCPAPPVAGPSVFLFPPKPKDTLMISRTPEVTCVVVDVSHEDPEVKFNWYVDGVEVHNAKTKPREEQYNSTYRVVSVLTVLHQDWLNGKEYKCKVSNKGLPSSIEKTISKAKGQPREPQVYTLPPCRDELTKNQVSLWCLVKGFYPSDIAVEWESNGQPENNYKTTPPVLDSDGSFFLYSKLTVDKSRWQQGNVFSCSVMHEALHNHYTQKSLSLSPGK
light: DIQMTQSPSSLSASVGDRVTITCRASKSVSTSAYSYMHWYQQKPGKAPKLLIYLASNLESGVPSRFSGSGSGTDFTLTISSLQPEDFATYYCQHSRELPYTFGQGTKLEIKRRTVAAPSVFIFPPSDEQLKSGTASVVCLLNNFYPREAKVQWKVDNALQSGNSQESVTEQDSKDSTYSLSSTLTLSKADYEKHKVYACEVTHQGLSSPVTKSFNRGEC
notes: also called scDbFAPxCD3-Fc(hole)Δab + VHFAP-CH1-Fc(knob)Δab + VLFAP-CLκ
B4: scDb/Fab-Fc (1-1)+2, trivalent bispecific anti-EGFRxanti-CD3 (bispecific antibody)
chain: EVQLVESGGGLVQPGGSLRLSCAASGFSLTNYGVHWVRQAPGKGLEWLGVIWSGGNTDYNTPFTSRFTISRDNSKNTLYLQMNSLRAEDTAVYYCARALTYYDYEFAYWGQGTTVTVSSGGGGSDIQLTQSPSFLSASVGDRVTITCRASQSIGTNIHWYQQKPGKAPKLLIKYASESISGVPSRFSGSGSGTEFTLTISSLQPEDFATYYCQQNNNWPTTFGAGTKLEIKRGGGGSGGGGSGGGGSEVQLVESGGGLVQPGGSLRLSCAASGFSLTNYGVHWVRQAPGKGLEWLGVIWSGGNTDYNTPFTSRFTISRDNSKNTLYLQMNSLRAEDTAVYYCARALTYYDYEFAYWGQGTTVTVSSGGGGSDIQLTQSPSFLSASVGDRVTITCRASQSIGTNIHWYQQKPGKAPKLLIKYASESISGVPSRFSGSGSGTEFTLTISSLQPEDFATYYCQQNNNWPTTFGAGTKLEIKRAAADKTHTCPPCPAPPVAGPSVFLFPPKPKDTLMISRTPEVTCVVVDVSHEDPEVKFNWYVDGVEVHNAKTKPREEQYNSTYRVVSVLTVLHQDWLNGKEYKCKVSNKGLPSSIEKTISKAKGQPREPQVCTLPPSRDELTKNQVSLSCAVKGFYPSDIAVEWESNGQPENNYKTTPPVLDSDGSFFLVSKLTVDKSRWQQGNVFSCSVMHEALHNHYTQKSLSLSPGK
heavy: QVQLVQSGAEVKKPGSSVKVSCKASGGTFSGYTMNWVRQAPGQGLEWMGLINPYKGVSTYNGKFKDRVTITADKSTSTAYMELSSLRSEDTAVYYCARSGYYGDSDWYFDVWGQGTLVTVSSASTKGPSVFPLAPSSKSTSGGTAALGCLVKDYFPEPVTVSWNSGALTSGVHTFPAVLQSSGLYSLSSVVTVPSSSLGTQTYICNVNHKPSNTKVDKKVEPKSCDKTHTCPPCPAPPVAGPSVFLFPPKPKDTLMISRTPEVTCVVVDVSHEDPEVKFNWYVDGVEVHNAKTKPREEQYNSTYRVVSVLTVLHQDWLNGKEYKCKVSNKGLPSSIEKTISKAKGQPREPQVYTLPPCRDELTKNQVSLWCLVKGFYPSDIAVEWESNGQPENNYKTTPPVLDSDGSFFLYSKLTVDKSRWQQGNVFSCSVMHEALHNHYTQKSLSLSPGK
light: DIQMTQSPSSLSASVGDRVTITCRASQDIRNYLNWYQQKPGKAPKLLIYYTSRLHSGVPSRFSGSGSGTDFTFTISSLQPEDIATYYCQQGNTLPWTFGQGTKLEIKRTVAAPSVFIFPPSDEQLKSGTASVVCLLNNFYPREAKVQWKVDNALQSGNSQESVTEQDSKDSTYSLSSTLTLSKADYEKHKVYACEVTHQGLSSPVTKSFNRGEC
B5: scDb/scFv-Fc (1-1)+2, trivalent bispecific anti-EGFRxanti-CD3 (bispecific antibody)
chain 1: B4 chain
chain 2: DIQMTQSPSSLSASVGDRVTITCRASQDIRNYLNWYQQKPGKAPKLLIYYTSRLHSGVPSRFSGSGSGTDFTFTISSLQPEDIATYYCQQGNTLPWTFGQGTKLEIKRGGGGSGGGGSGGGGSQVQLVQSGAEVKKPGSSVKVSCKASGGTFSGYTMNWVRQAPGQGLEWMGLINPYKGVSTYNGKFKDRVTITADKSTSTAYMELSSLRSEDTAVYYCARSGYYGDSDWYFDVWGQGTLVTVSSAAADKTHTCPPCPAPPVAGPSVFLFPPKPKDTLMISRTPEVTCVVVDVSHEDPEVKFNWYVDGVEVHNAKTKPREEQYNSTYRVVSVLTVLHQDWLNGKEYKCKVSNKGLPSSIEKTISKAKGQPREPQVYTLPPCRDELTKNQVSLWCLVKGFYPSDIAVEWESNGQPENNYKTTPPVLDSDGSFFLYSKLTVDKSRWQQGNVFSCSVMHEALHNHYTQKSLSLSPGK
notes: also called scDbhu225xhu225-Fc(hole)Δab + scFvhuU3-Fc(knob)Δab

Key:
FAP = biological target: T1, FAP (UniProt Q12884 1-760, limits assumed); test: flow cytometry, serial dilution on HT1080-FAP cells (FAP-expressing), PE anti-human Fc detection
T1 construct: whole, on cells; also called FAP on HT1080-FAP cells
Protocol: Binding of trivalent, bispecific fusion proteins to FAP-expressing (HT1080-FAP) cell lines was analyzed by flow cytometry. 2×10⁵ cells/well were incubated with a serial dilution of trivalent, bispecific antibodies for 1 h at 4° C. followed by detection using a PE-conjugated anti-human Fc antibody (Jackson ImmunoResearch Laboratories Inc).

EGFR [1] = biological target: T2, EGFR (UniProt P00533 25-1210, limits assumed); test: flow cytometry, serial dilution on LIM1215 cells (EGFR-expressing), PE anti-human Fc detection
T2 construct: whole, on cells; the cell lines are human tumor lines
Protocol: (§1) Binding analysis of the trivalent, bispecific antibodies was performed by flow cytometry using tumor cell lines with different EGFR-expression levels (FIG. 20) (Table 12). Adherent cells were washed with PBS and shortly trypsinized at 37° C. Trypsin was quenched with FCS-containing medium and removed by centrifugation (500×g, 5 min.). Target cells (FaDu, LIM1215, SKBR-3, T-47-D, MCF-7 and Jurkat cells) at 1×10⁵ cells/well were incubated with a serial dilution of trivalent, bispecific antibodies for 1 h at 4° C. After removing excess of recombinant protein by washing with PBA (PBS, 2% FBS, and 0.02% sodium azide), bound protein was detected using PE-conjugated anti-human Fc mAb (Jackson ImmunoResearch Laboratories Inc). Fluorescence was measured using MACSquant VYB (Miltenyi Biotec) and data were analyzed using FlowJo (Tree Star). Relative median fluorescence intensities (MFI) were calculated as followed: relative MFI=((MFIₛₐₘₚₗₑ-(MFIdetection-MFIcells))/MFIcells).

EGFR [2] = biological target: T2, EGFR; test: flow cytometry, serial dilution on MCF-7 cells (EGFR-expressing), PE anti-human Fc detection
Protocol: as §1

EGFR [3] = biological target: T2, EGFR; test: flow cytometry, serial dilution on SKBR-3 cells (EGFR-expressing), PE anti-human Fc detection
Protocol: as §1

EGFR [4] = biological target: T2, EGFR; test: flow cytometry, serial dilution on FaDu cells (EGFR-expressing), PE anti-human Fc detection
Protocol: as §1

EGFR [5] = biological target: T2, EGFR; test: flow cytometry, serial dilution on T-47-D cells (EGFR-expressing), PE anti-human Fc detection
Protocol: as §1

Binder | EC50 (FAP) | EC50 (EGFR [1]) | EC50 (EGFR [2]) | EC50 (EGFR [3]) | EC50 (EGFR [4]) | EC50 (EGFR [5])
B1 | 0.6 nM | – | – | – | – | –
B2 | 0.3 nM | – | – | – | – | –
B3 | 0.5 nM | – | – | – | – | –
B4 | – | 2.6 nM | 0.5 nM | 0.8 nM | 3.6 nM | 0.2 nM
B5 | – | 4 nM | 0.8 nM | 2.8 nM | 8.9 nM | 0.4 nM

Source: patent US20220396635A1 (UNIVERSIT T STUTTGART, published 2022)
